{"source": "patent US20230272390A1", "about": "“COMPOSITIONS AND METHODS FOR HEMOGLOBIN PRODUCTION” (THE CHILDREN'S HOSPITAL OF PHILADELPHIA, priority 2020, published 2023)", "test_system": "negative control oligo (shares 7/17 bp with the consensus motif)", "assay": "Fluorescence polarization DNA binding assay, negative control oligo", "settings": "same conditions", "method": "The fragment of Human ZNF410 (NP_001229855.1) comprising of five zinc finger domains ZF1-5 (residues 217-366) was cloned into pGEX-6P-1 vector with a GST fusion tag (pXC2180). The plasmid was transformed into Escherichia coli strain BL21-Codon-plus(DE3)-RIL (Stratagene). Bacteria was grown in LB broth in a shaker at 37° C. until reaching the log phase (A600 nm between 0.4 and 0.5), the shaker temperature was then set to 16° C. and 25 μM ZnCl2 was added to the cell culture. When the shaker temperature reached 16° C. and A600 nm reached ˜0.8, the protein expression was induced by the addition of 0.2 mM isopropyl-3-D-thiogalactopyranoside with subsequent growth for 20 hours at 16° C. […]\nFluorescence polarization (FP) method was used to measure the binding affinity using a Synergy™ 4 Microplate Reader (BioTek). […]\nTo further gain insight into the molecular basis of how the ZNF410 tandem ZF domain recognizes its targeting DNA sequence, crystallization of the ZNF410-DNA complex was performed. The binding affinity of the ZNF410 ZF domain (ZF1-5) with the consensus motif was quantified by fluorescence polarization using purified GST fusion protein (Patel, et al. (2016) Methods Enzymol., 573:387-401). […]"}
{"molecule": "ZF1-5: fragment of human ZNF410 comprising five zinc finger domains ZF1-5 (residues 217-366); dominant-negative when overexpressed (protein, left off: small tags and cut ends, fragment of human ZNF410 comprising five zinc finger domains ZF1-5 (residues 217-366); dominant-negative when overexpressed) KKLKCTVEGCDRTFVWPAHFKYHLKTHRNDRSFICPAEGCGKSFYVLQRLKVHMRTHNGEKPFMCHESGCGKQFTTAGNLKNHRRIHTGEKPFLCEAQGCGRSFAEYSSLRKHLVVHSGEKPHQCQVCGKTFSQSGSRNVHMRKHHLQLG", "values": [{"measurement": "binding to the negative control oligo", "value": "no measurable binding"}]}
